In patent US20260098075A1:

B1: 2A2 CAR against ROR1 with Spacer 28 (protein)
chain: QVQLQQSGAELVRPGASVTLSCKASGYTFSDYEMHWVIQTPVHGLEWIGAIDPETGGTAYNQKFKGKAILTADKSSSTAYMELRSLTSEDSAVYYCTGYYDYDSFTYWGQGTLVTVSAGGGGSGGGGSGGGGSDIVMTQSQKIMSTTVGDRVSITCKASQNVDAAVAWYQQKPGQSPKLLIYSASNRYTGVPDRFTGSGSGTDFTLTISNMQSEDLADYFCQQYDIYPYTFGGGTKLEIKTGGGGSGSVCSRDFTPPMFWVLVVVGGVLACYSLLVTVAFIIFWVKRGRKKLLYIFKQPFMRPVQTTQEEDGCSCRFPEEEEGGCELRVKFSRSADAPAYQQGQNQLYNELNLGRREEYDVLDKRRGRDPEMGGKPRRKNPQEGLYNELQKDKMAEAYSEIGMKGERRRGKGHDGLYQGLSTATKDTYDALHMQALPPR
B2: 2A2 CAR against ROR1 with Spacer 21 (protein)
chain: QVQLQQSGAELVRPGASVTLSCKASGYTFSDYEMHWVIQTPVHGLEWIGAIDPETGGTAYNQKFKGKAILTADKSSSTAYMELRSLTSEDSAVYYCTGYYDYDSFTYWGQGTLVTVSAGGGGSGGGGSGGGGSDIVMTQSQKIMSTTVGDRVSITCKASQNVDAAVAWYQQKPGQSPKLLIYSASNRYTGVPDRFTGSGSGTDFTLTISNMQSEDLADYFCQQYDIYPYTFGGGTKLEIKTGGGGSGVPCPVPPMFWVLVVVGGVLACYSLLVTVAFIIFWVKRGRKKLLYIFKQPFMRPVQTTQEEDGCSCRFPEEEEGGCELRVKFSRSADAPAYQQGQNQLYNELNLGRREEYDVLDKRRGRDPEMGGKPRRKNPQEGLYNELQKDKMAEAYSEIGMKGERRRGKGHDGLYQGLSTATKDTYDALHMQALPPR
B3: R12 CAR with Spacer 15 (protein)
chain: QEQLVESGGRLVTPGGSLTLSCKASGFDFSAYYMSWVRQAPGKGLEWIATIYPSSGKTYYATWVNGRFTISSDNAQNTVDLQMNSLTAADRATYFCARDSYADDGALFNIWGPGTLVTISSGGGGSGGGGSGGGGSELVLTQSPSVSAALGSPAKITCTLSSAHKTDTIDWYQQLQGEAPRYLMQVQSDGSYTKRPGVPDRFSGSSSGADRYLIIPSVQADDEADYYCGADYIGGYVFGGGTQLTVTGGGGSGPPKPKDTMFWVLVVVGGVLACYSLLVTVAFIIFWVKRGRKKLLYIFKQPFMRPVQTTQEEDGCSCRFPEEEEGGCELRVKFSRSADAPAYQQGQNQLYNELNLGRREEYDVLDKRRGRDPEMGGKPRRKNPQEGLYNELQKDKMAEAYSEIGMKGERRRGKGHDGLYQGLSTATKDTYDALHMQALPPR
B4: R12 CAR with Spacer 1 (ROR1-specific R12 scFv, Gly-Ser linker, Spacer 1, CD28-derived transmembrane domain, 4-1BB costimulatory domain, CD3 zeta signaling … (protein)
chain: QEQLVESGGRLVTPGGSLTLSCKASGFDFSAYYMSWVRQAPGKGLEWIATIYPSSGKTYYATWVNGRFTISSDNAQNTVDLQMNSLTAADRATYFCARDSYADDGALFNIWGPGTLVTISSGGGGSGGGGSGGGGSELVLTQSPSVSAALGSPAKITCTLSSAHKTDTIDWYQQLQGEAPRYLMQVQSDGSYTKRPGVPDRFSGSSSGADRYLIIPSVQADDEADYYCGADYIGGYVFGGGTQLTVTGGGGSGKPCPPCKCPMFWVLVVVGGVLACYSLLVTVAFIIFWVKRGRKKLLYIFKQPFMRPVQTTQEEDGCSCRFPEEEEGGCELRVKFSRSADAPAYQQGQNQLYNELNLGRREEYDVLDKRRGRDPEMGGKPRRKNPQEGLYNELQKDKMAEAYSEIGMKGERRRGKGHDGLYQGLSTATKDTYDALHMQALPPR
B5: 2A2 CAR against ROR1 with Spacer 13 (protein)
chain: QVQLQQSGAELVRPGASVTLSCKASGYTFSDYEMHWVIQTPVHGLEWIGAIDPETGGTAYNQKFKGKAILTADKSSSTAYMELRSLTSEDSAVYYCTGYYDYDSFTYWGQGTLVTVSAGGGGSGGGGSGGGGSDIVMTQSQKIMSTTVGDRVSITCKASQNVDAAVAWYQQKPGQSPKLLIYSASNRYTGVPDRFTGSGSGTDFTLTISNMQSEDLADYFCQQYDIYPYTFGGGTKLEIKTGGGGSGPCPRCPAPMFWVLVVVGGVLACYSLLVTVAFIIFWVKRGRKKLLYIFKQPFMRPVQTTQEEDGCSCRFPEEEEGGCELRVKFSRSADAPAYQQGQNQLYNELNLGRREEYDVLDKRRGRDPEMGGKPRRKNPQEGLYNELQKDKMAEAYSEIGMKGERRRGKGHDGLYQGLSTATKDTYDALHMQALPPR
B6: R11 CAR against ROR1 with Spacer 4 (protein)
chain: QSVKESEGDLVTPAGNLTLTCTASGSDINDYPISWVRQAPGKGLEWIGFINSGGSTWYASWVKGRFTISRTSTTVDLKMTSLTTDDTATYFCARGYSTYYGDFNIWGPGTLVTISSGGGGSGGGGSGGGGSELVMTQTPSSTSGAVGGTVTINCQASQSIDSNLAWFQQKPGQPPTLLIYRASNLASGVPSRFSGSRSGTEYTLTISGVQREDAATYYCLGGVGNVSYRTSFGGGTEVVVKTGGGGSGELKTPLGDTTHTCPRCPEPKSCDTPPPCPRCPEPKSCDTPPPCPRCPEPKSCDTPPPCPRCPAPMFWVLVVVGGVLACYSLLVTVAFIIFWVKRGRKKLLYIFKQPFMRPVQTTQEEDGCSCRFPEEEEGGCELRVKFSRSADAPAYQQGQNQLYNELNLGRREEYDVLDKRRGRDPEMGGKPRRKNPQEGLYNELQKDKMAEAYSEIGMKGERRRGKGHDGLYQGLSTATKDTYDALHMQALPPR
B7: R11 CAR against ROR1 with Spacer 6 (protein)
chain: QSVKESEGDLVTPAGNLTLTCTASGSDINDYPISWVRQAPGKGLEWIGFINSGGSTWYASWVKGRFTISRTSTTVDLKMTSLTTDDTATYFCARGYSTYYGDFNIWGPGTLVTISSGGGGSGGGGSGGGGSELVMTQTPSSTSGAVGGTVTINCQASQSIDSNLAWFQQKPGQPPTLLIYRASNLASGVPSRFSGSRSGTEYTLTISGVQREDAATYYCLGGVGNVSYRTSFGGGTEVVVKTGGGGSGEPKSCDTPPPCPRCPEPKSCDTPPPCPRCPEPKSCDTPPPCPRCPAPMFWVLVVVGGVLACYSLLVTVAFIIFWVKRGRKKLLYIFKQPFMRPVQTTQEEDGCSCRFPEEEEGGCELRVKFSRSADAPAYQQGQNQLYNELNLGRREEYDVLDKRRGRDPEMGGKPRRKNPQEGLYNELQKDKMAEAYSEIGMKGERRRGKGHDGLYQGLSTATKDTYDALHMQALPPR
B8: R11 CAR against ROR1 with Spacer 5 (protein)
chain: QSVKESEGDLVTPAGNLTLTCTASGSDINDYPISWVRQAPGKGLEWIGFINSGGSTWYASWVKGRFTISRTSTTVDLKMTSLTTDDTATYFCARGYSTYYGDFNIWGPGTLVTISSGGGGSGGGGSGGGGSELVMTQTPSSTSGAVGGTVTINCQASQSIDSNLAWFQQKPGQPPTLLIYRASNLASGVPSRFSGSRSGTEYTLTISGVQREDAATYYCLGGVGNVSYRTSFGGGTEVVVKTGGGGSGCPRCPEPKSCDTPPPCPRCPEPKSCDTPPPCPRCPEPKSCDTPPPCPRCPAPMFWVLVVVGGVLACYSLLVTVAFIIFWVKRGRKKLLYIFKQPFMRPVQTTQEEDGCSCRFPEEEEGGCELRVKFSRSADAPAYQQGQNQLYNELNLGRREEYDVLDKRRGRDPEMGGKPRRKNPQEGLYNELQKDKMAEAYSEIGMKGERRRGKGHDGLYQGLSTATKDTYDALHMQALPPR

Target: human ROR1 (tyrosine-protein kinase transmembrane receptor ROR1) (human), Q01973
Assay: cell-based or functional assay

Chain of human ROR1 (tyrosine-protein kinase transmembrane receptor ROR1) (human), Q01973 (Q01973 30-937): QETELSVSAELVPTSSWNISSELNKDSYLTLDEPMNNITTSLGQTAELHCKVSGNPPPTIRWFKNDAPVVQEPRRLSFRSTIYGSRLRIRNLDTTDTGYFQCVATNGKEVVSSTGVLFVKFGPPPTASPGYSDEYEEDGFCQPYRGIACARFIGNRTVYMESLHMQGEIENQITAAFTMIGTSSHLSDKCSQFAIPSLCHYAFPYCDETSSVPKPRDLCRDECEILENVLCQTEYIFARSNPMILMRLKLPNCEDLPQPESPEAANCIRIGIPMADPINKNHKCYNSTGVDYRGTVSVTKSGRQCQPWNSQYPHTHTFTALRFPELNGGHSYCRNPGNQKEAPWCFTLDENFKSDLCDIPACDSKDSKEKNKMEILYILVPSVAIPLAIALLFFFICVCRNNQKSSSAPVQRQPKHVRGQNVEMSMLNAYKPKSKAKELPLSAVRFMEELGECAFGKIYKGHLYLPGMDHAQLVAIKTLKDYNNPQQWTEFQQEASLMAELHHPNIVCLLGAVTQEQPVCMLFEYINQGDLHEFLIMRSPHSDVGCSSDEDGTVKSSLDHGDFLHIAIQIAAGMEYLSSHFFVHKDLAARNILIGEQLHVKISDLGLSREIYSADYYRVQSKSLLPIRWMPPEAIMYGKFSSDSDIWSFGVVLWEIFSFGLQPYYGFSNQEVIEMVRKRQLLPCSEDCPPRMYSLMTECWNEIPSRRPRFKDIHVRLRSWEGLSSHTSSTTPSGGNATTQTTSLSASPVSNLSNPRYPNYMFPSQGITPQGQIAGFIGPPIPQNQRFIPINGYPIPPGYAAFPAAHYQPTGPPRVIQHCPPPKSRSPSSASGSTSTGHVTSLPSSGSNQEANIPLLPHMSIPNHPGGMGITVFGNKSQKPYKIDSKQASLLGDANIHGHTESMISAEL

Binder	A549 IFNg, donor 2089	A549 IFNg, donor 5018	A549 IL-2, donor 2089	A549 IL-2, donor 5018	A549 normalized AUC, donor 2089	A549 normalized AUC, donor 5018	H1975 IFNg, donor 2089	H1975 IFNg, donor 5018	H1975 IL-2, donor 2089	H1975 IL-2, donor 5018	H1975 normalized AUC, donor 2089	H1975 normalized AUC, donor 5018	A549 IFNg, donor 7811	A549 IL-2, donor 7811	A549 normalized AUC, donor 7811	H1975 IFNg, donor 7811	H1975 IL-2, donor 7811	H1975 normalized AUC, donor 7811	also measured
B1	49900	34200	1	2	43.6	61	78300	58100	1	8	39.5	44.3	–	–	–	–	–	–	–
B2	55400	41300	1	3	38	58.9	78000	61900	2	13	39.4	43.2	–	–	–	–	–	–	–
B3	–	7610	–	9	–	81.2	–	4320	–	10	–	75	–	–	–	–	–	–	A549 IFNg, donor 2735: 13800; A549 IL-2, donor 2735: 8; A549 normalized AUC, donor 2735: 64; H1975 IFNg, donor 2735: 16900; H1975 IL-2, donor 2735: 17; H1975 normalized AUC, donor 2735: 63
B4	–	4350	–	0	–	80.9	–	4850	–	0	–	68.8	–	–	–	–	–	–	A549 IFNg, donor 2735: 8940; A549 IL-2, donor 2735: 4; A549 normalized AUC, donor 2735: 67.6; H1975 IFNg, donor 2735: 15700; H1975 IL-2, donor 2735: 10; H1975 normalized AUC, donor 2735: 67.6
B5	46600	38900	1	3	42	61	67100	54300	1	14	37.9	43.2	–	–	–	–	–	–	–
B6	–	37000	–	5	–	59.1	–	9130	–	1	–	94.5	46200	26	54.6	15900	4	83.1	–
B7	–	46300	–	10	–	58.4	–	7170	–	1	–	114	86700	89	51.4	11900	2	96.5	–
B8	–	60900	–	10	–	55.8	–	17300	–	2	–	86.7	83600	87	48.8	32400	16	69.6	–
